Article PMC11751033

Test system: ATF 3r (six-zinc-finger artificial transcription factor with NLS, VP64 and HA tag) (artificial/designed (expressed in E. coli BL21))
Test: EMSA
Settings: EMSA: 2.5% glycerol, 5 mM MgCl2, 0.05% NP-40, 50 mM KCl, 20 uL, 20 pmol DNA, 0 C 1 h; 4-8% native PAGE in TBE pH 8.2-8.4, 5 C, SYBR Safe stain; binding pH not …

IFNG target dsDNA (ATF 3 site) showed a Kd of 5.2 nM.
